Source: paper PMC11473482, “Highly efficient synthesis of the chiral ACE inhibitor intermediate (R)-2-hydroxy-4-phenylbutyrate ethyl ester via engineered bi-enzyme coupled systems” (Bioresources and Bioprocessing, 2024)

Legend:
[1] = tested on: T1, GDH-L-CpCR; assay: NADPH depletion at […] nm; type: biochemical; details: 100 mM phosphate pH 7.0, NADPH co-substrate, fused GDH; substrate of Km not given, OPBE by the assay
T1 construct: fusion: GDH N-terminal, (GGGGS)2 linker, CpCR C-terminal; pETDuet-1, E. coli BL21(DE3); with Glucose 1-dehydrogenase

[2] = tested on: T2, CpCR-L-GDH; assay: NADPH depletion at […] nm; type: biochemical; details: 100 mM phosphate pH 7.0, NADPH co-substrate, fused GDH; substrate of Km not given, OPBE by the assay
T2 construct: fusion: CpCR N-terminal, (GGGGS)2 linker, GDH C-terminal; about 69 kDa; pETDuet-1, E. coli BL21(DE3); with Glucose 1-dehydrogenase

[3] = substrate: CCOC(=O)C(=O)CCc1ccccc1; assay: purified protein; type: biochemical, Lodderomyces parapsilosis; details: 100 mM phosphate pH 7.0, NADPH co-substrate, enzyme from pETDuet-1 strain, substrate of Km not given, OPBE by the assay

Molecule	Km [1] [mM]	Km [2] [mM]	Km [3] [mM]	kcat [3] [s⁻¹]	kcat/Km [3] [M⁻¹ s⁻¹]
CCOC(=O)C(=O)CCc1ccccc1 [OPBE]	16.5	18.9	–	–	–
CpCR (Lodderomyces parapsilosis) (protein, full-length ORF, 368 residues, about 41 kDa; His-tagged, expressed from pETDuet-1 in E. coli BL21(DE3), Ni-NTA purified) MTKAVPDKFQGFAVSDPKNWNRPKLASYERKQINPHDVVLKNEVCGLCYSDIHTLSAGWQPLQRDNLVVGHEIIGEVIAVGDEVTEFKVGDRVGIGAASSSCRSCQRCDSDNEQYCKQGAATYNSKDVRSNNYVTQGGYSSHSIADEKFVFAIPEDLPSSYGAPLMCAGITVFSPLIRNLGLDARGKNVGIIGIGGLGHLALQFANAMGANVTAFSRSSSKKEQAMKLGAHDFVATGEDKTWYKNYDDHFDFILNCASGIDGLNLSEYLSTLKVDKKFVSVGLPPSEDKFEVSPFTFLQQGASFGSSLLGSKTEVKEMLNLAAKHNVRPMIEEVPISEENCAKALDRCHAGDVRYRFVFTDFDKAFKA	–	–	19.32	1.77	91
